Test results: PMC3779284
Read-outs that look alike come from different tables or passages of the source.

Legend:
[1] = molecular target: Calmodulin fluorescently labelled with Alexa Fluor 488 (UniProt P0DP23); assay: AUC
[2] = molecular target: Calmodulin fluorescently labelled with Alexa Fluor 488 (UniProt P0DP23); assay: AUC; remark: listed apart in the source

| Kd [1] | percent free calmodulin at 1:0.5 CaM:nNOSred [1] | percent free calmodulin at 1:0.5 CaM:nNOSred [2] | Substance |
| --- | --- | --- | --- |
| 468 nM | 64.6% |  | nNOSred R753A (domain or fragment) |
| 167 nM | 30.9% | 40% | nNOSred wt (rat neuronal nitric oxide synthase reductase domain, wild type) (domain or fragment) |
